# Where no end group is shown, it is not given here. The star is where a group is joined. Myristoyl = CCCCCCCCCCCCCC(=O)*
# T1: hPTH (1-34) (human, UniProt P01270)
# T1 peptide: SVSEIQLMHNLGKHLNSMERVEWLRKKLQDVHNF
# Biological target: T1, hPTH (1-34)
# Experiment: cell-based or functional assay
# Conditions: not given
row,Molecule,"IC50 Ratio: 50% inhibition of cAMP output, MC3T3-E1 mouse osteoblasts"
1,XLMHDKGKSIQDLRRRFFLHHLIAEIHTA (N-terminal myristoyl (Myr-Gln); C-terminal amide (Ala-NH2)) [Compound No. 10],2.24 ratio of IC50 to that of Compound No. 15
2,Myristoyl-IQLMHDKGKSIQDLRRRFFLHHLIAEIHTA-NH2 (SMILES CCCCCCCCCCCCCC(=O)N[C@H](C(=O)N[C@@H](CCC(N)=O)C(=O)N[C@@H](CC(C)C)C(=O)N[C@@H](CCSC)C(=O)N[C@@H](Cc1c[nH]cn1)C(=O)N[C@@H](CC(=O)O)C(=O)N[C@@H](CCCCN)C(=O)NCC(=O)N[C@@H](CCCCN)C(=O)N[C@@H](CO)C(=O)N[C@H](C(=O)N[C@@H](CCC(N)=O)C(=O)N[C@@H](CC(=O)O)C(=O)N[C@@H](CC(C)C)C(=O)N[C@@H](CCCNC(=N)N)C(=O)N[C@@H](CCCNC(=N)N)C(=O)N[C@@H](CCCNC(=N)N)C(=O)N[C@@H](Cc1ccccc1)C(=O)N[C@@H](Cc1ccccc1)C(=O)N[C@@H](CC(C)C)C(=O)N[C@@H](Cc1c[nH]cn1)C(=O)N[C@@H](Cc1c[nH]cn1)C(=O)N[C@@H](CC(C)C)C(=O)N[C@H](C(=O)N[C@@H](C)C(=O)N[C@@H](CCC(=O)O)C(=O)N[C@H](C(=O)N[C@@H](Cc1c[nH]cn1)C(=O)N[C@H](C(=O)N[C@@H](C)C(N)=O)[C@@H](C)O)[C@@H](C)CC)[C@@H](C)CC)[C@@H](C)CC)[C@@H](C)CC) [Compound No. 22],0.765 ratio of IC50 to that of Compound No. 15
3,"IQLMHDKGKSIQDLRRRFFLHHLIAEIHTA-NH2 [[Ile^5, Met^8]-hPTHrP (5-34)-NH2]",1 ratio of IC50 to that of Compound No. 15
4,IQLMHAKGKSIQDLRRRFFLHHLIAEIHTA-NH2 [Compound No. 17],1.17 ratio of IC50 to that of Compound No. 15
5,IQXMHDKGKSIQDLRRRFFLHHLIAEIHTA (Nle (norleucine) as third residue (EEE); C-terminal amide (Ala-NH2)) [Compound No. 14],0.922 ratio of IC50 to that of Compound No. 15
6,Ac-IQLMHDKGKSIQDLRRRFFLHHLIAEIHTA-NH2 [Compound No. 21],0.934 ratio of IC50 to that of Compound No. 15
7,IQLMHALGKSIQDLRRRFFLHHLIAEIHTA-NH2 [Compound No. 18],1.97 ratio of IC50 to that of Compound No. 15
8,IQLMHDKGKSIQDLRRRFFLHKLIAEIHTA-NH2 [Compound No. 20],1.01 ratio of IC50 to that of Compound No. 15
9,LQLMHDKGKSIQDLRRRFFLHHLIAEIHTA-NH2 [Compound No. 9],1.02 ratio of IC50 to that of Compound No. 15
10,IQLMHDKGKSIQDLRRRFFLRHLIAEIHTA-NH2 [Compound No. 19],0.934 ratio of IC50 to that of Compound No. 15

# Biological target: T1, hPTH (1-34)
# Experiment: not given
# Conditions: not given
row,Molecule,"IC50 Ratio: 50% inhibition of cAMP output, MC3T3-E1 mouse osteoblasts (ratio of IC50 to that of Compound No. 15)"
1,"[Leu^11,D-Trp^12]-hPTHrP(7-34)-NH2 (from UniProt P12272) (peptide)",3.91

# System: output of cAMP produced by 5×10^-9 M hPTH (1-34) in cultured mouse osteoblast MC3T3-E1
# Experiment: Determination of PTH antagonism: inhibition of cAMP output induced by hPTH (1-34) in cultured mouse osteoblast MC3T3-E1
# Assay type: cell-based
# Conditions: Table 3, 50% inhibition of cAMP output by 5×10^-9 M hPTH (1-34), ratio to control [Tyr34]-hPTH (3-34)-NH2 = 1
# Method: PTH antagonism of the PTHrP derivatives (I) of the present invention was determined on the basis of the output of cAMP, using cultured mouse osteoblast MC3T3-E1.
# To a multiwell-culture plate of 12-well were inoculated 1×10^5 cells/well of the cultured cells, and the plate was incubated at 37° C. under 95% air-5% CO2 atmosphere for 3 days after addition of α-modified MEM containing 10% semi-fetal bovine serum as a medium. Then, the medium was exchanged with α-modified MEM containing 1% bovine serum albumin and the cultured cells were incubated for 6 hours. The medium was replaced by α-modified MEM containing various concentrations of the compound of the present invention, 5×10^-9 M hPTH (1-34), 1% bovine serum albumin and 1 mM isobutylmethylxanthin, and the mixture was incubated for 1 hour. The medium was separated from the cells, and the medium was used as a sample for assaying cAMP. The cells were shaken with 90% n-propyl alcohol to extract cAMP according to Yamaguchi et al., J. Biol. Chem., 262, 7711-7718 (1987) for preparing another sample.
# Assay of cAMP was performed using a commercially available cAMP-radioimmunoassay kit. […] Compound numbers in the tables correspond to those in Table 2.
row,Molecule,IC50 Ratio
1,"[Tyr^34 ]-hPTH (3-34)-NH2 [(Tyr34)--hPTH(3-34)--NH2, reference compound]",1

# Same assay, conditions: Table 4, 50% inhibition of cAMP output by 5×10^-9 M hPTH (1-34), ratio to control Compound No. 15 = 1
row,Molecule,IC50 Ratio
1,"[Leu^11,D-Trp^12 ]-hPTHrP(7-34)-NH2 [(Leu11,D--Trp12)--hPTHrP(7-34)--NH2, reference compound]",3.91

# Biological target: T1, hPTH (1-34)
# Experiment: not given
# Conditions: scale: ratio of IC50 to that of [Tyr34]-hPTH(3-34)-NH2
row,Molecule,"IC50 Ratio: 50% inhibition of cAMP output, MC3T3-E1 mouse osteoblasts"
1,[Tyr^34]-hPTH (3-34)-NH2 (from UniProt P01270) (peptide),1

# Biological target: T1, hPTH (1-34)
# Experiment: cell-based or functional assay
# Conditions: not given
# Remark: another data set of the same source
row,Molecule,"IC50 Ratio: 50% inhibition of cAMP output, MC3T3-E1 mouse osteoblasts"
1,"IQLMHDKGKSIQDLRRRFFLHHLIAEIHTA-NH2 [[Ile^5, Met^8]-hPTHrP (5-34)-NH2]",0.017 ratio of IC50 to that of [Tyr34]-hPTH(3-34)-NH2
2,SEIQLMHQLGKSIQDLRRRFFLHHLIAEIHTA-NH2 [Compound No. 2],0.003 ratio of IC50 to that of [Tyr34]-hPTH(3-34)-NH2
3,SEIQLMHALGKSIQDLRRRFFLHHLIAEIHTA-NH2 [Compound No. 1],0.003 ratio of IC50 to that of [Tyr34]-hPTH(3-34)-NH2
4,FQLMHDKGKSIQDLRRRFFLHHLIAEIHTA-NH2 [Compound No. 8],0.026 ratio of IC50 to that of [Tyr34]-hPTH(3-34)-NH2

# — patent US5446130A, “Parathyroid hormone antagonists” (Mitsubishi Kasei Corporation, priority 1990, dated 1995)
